First the molecules themselves.
T1: human beta klotho protein (soluble, used in Biacore) (human, UniProt Q86Z14 53-997, limits assumed)
T1 construct: also called HuKLB; huKLB
T1 sequence: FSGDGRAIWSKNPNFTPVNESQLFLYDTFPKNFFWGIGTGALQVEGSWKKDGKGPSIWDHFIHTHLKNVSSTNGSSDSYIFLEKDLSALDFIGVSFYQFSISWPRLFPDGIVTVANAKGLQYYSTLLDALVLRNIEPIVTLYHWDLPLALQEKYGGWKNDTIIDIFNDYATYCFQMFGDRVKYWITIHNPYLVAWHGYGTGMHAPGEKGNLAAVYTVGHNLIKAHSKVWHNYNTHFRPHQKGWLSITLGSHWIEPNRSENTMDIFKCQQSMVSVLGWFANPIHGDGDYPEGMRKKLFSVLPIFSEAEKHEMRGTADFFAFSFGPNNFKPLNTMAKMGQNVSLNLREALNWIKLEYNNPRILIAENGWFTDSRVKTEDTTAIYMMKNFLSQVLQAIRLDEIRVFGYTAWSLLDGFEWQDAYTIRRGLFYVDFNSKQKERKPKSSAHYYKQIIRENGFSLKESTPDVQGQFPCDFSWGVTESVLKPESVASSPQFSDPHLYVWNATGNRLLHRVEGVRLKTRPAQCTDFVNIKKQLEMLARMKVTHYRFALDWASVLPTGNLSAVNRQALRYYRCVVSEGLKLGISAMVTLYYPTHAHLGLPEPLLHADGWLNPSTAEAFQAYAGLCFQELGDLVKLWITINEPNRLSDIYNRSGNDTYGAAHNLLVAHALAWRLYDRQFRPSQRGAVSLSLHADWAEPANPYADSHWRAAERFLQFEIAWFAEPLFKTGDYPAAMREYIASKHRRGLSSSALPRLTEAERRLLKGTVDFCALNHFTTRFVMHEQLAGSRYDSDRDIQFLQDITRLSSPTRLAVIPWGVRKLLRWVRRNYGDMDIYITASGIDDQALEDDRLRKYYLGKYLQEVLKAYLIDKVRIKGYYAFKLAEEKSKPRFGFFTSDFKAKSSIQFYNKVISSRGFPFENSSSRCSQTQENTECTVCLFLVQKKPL

T2: cynomolgus monkey beta klotho protein (soluble, used in Biacore) (cynomolgus monkey (Macaca fascicularis), UniProt Q86Z14 53-996 (human entry), limits assumed)
T2 construct: Protein in solution; also called Cyno KLB; cyKLB
T2 chain: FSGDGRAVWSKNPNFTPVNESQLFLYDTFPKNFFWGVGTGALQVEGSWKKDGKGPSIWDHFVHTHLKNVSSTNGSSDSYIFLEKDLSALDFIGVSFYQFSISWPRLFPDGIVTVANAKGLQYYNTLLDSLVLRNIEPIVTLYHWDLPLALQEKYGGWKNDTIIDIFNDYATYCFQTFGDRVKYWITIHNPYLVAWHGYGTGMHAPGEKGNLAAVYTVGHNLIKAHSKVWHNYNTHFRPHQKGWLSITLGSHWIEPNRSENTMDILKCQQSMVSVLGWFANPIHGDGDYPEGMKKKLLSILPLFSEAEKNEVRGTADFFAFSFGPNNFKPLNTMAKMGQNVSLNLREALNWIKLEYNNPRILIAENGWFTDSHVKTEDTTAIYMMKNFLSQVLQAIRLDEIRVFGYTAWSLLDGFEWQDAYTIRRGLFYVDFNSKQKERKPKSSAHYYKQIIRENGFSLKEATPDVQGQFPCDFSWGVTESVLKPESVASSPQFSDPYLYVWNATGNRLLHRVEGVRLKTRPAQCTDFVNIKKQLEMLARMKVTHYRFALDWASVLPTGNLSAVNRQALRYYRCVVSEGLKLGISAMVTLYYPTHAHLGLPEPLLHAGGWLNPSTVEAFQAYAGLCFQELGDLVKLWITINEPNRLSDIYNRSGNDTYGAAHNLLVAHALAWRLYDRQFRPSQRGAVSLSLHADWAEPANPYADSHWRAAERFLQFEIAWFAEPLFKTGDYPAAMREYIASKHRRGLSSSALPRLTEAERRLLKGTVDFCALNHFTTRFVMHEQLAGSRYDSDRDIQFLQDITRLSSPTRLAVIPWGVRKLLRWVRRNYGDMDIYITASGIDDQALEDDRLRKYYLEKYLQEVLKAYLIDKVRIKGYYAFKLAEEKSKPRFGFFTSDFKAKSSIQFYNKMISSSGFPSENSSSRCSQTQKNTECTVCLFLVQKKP

B1: antibody 3N20 (antibody, V domains shown)
VH: QVQLQESGAELARPGASVKLSCKVSGYIFTNYGISWVKQRTGQGLEWIGEIYPRSGNTYYNEKFKGKATLTADMSSSTAYMDLRSLTSEDSAVYFCARHWDGVLDYFDYWGQGTSLTVSS
VL: DIVMTQSPSSLSVSAGEKVTMSCKSSQSLLNSGNQKNYLAWYQQKPGQPPKLLIYGASTRESGVPDRFTGSGSGTDFTLTISSVQAEDLAVYYCLNDHSYPFTFGAGTKLELK
notes: Murine monoclonal antibody
B2: antibody 1C17 (antibody, V domains shown)
VH: QVQLQESGPGLVKPSQSLSLTCSVTGYSITSGYYWNWIRQFPGNKLEWMGYINYDGNSNYTPSLKNRISITRDTSKNQFFLKLNSVTPEDTATYYCARKGAYYSNYDSFDVWGTGTTVTVSS
VL: DIKMTQSPSSMYASLGERVTITCKASQDINSYLSWVQQKPGKSPKTLIYRANRLVDGVPSRFSGSGSGQDYSLTISSLEYEDMGIYYCLQYDEFPFTFGSGTKLEIK
notes: Murine monoclonal antibody
B3: antibody 5F7 (antibody, V domains shown)
VH: QVQPQESGPELVKPGALVKISCKASGYTFTRYDINWVKQRPGQGLEWIGWIYPGDISTKYNEKFKGKATLTADKSSSTAYMQLNSLTSENSAVYFCARSDYYGSRSFVYWGQGTLVTVSA
VL: DIVLTQSPASLAVSLGQRATISCRASKSVSTSGYSYMHWYQQKPGQPPKLLIYLASNLESGVPARFSGSGSGTDFTLNIHPVEEEDAATYYCQHSRELPYTFGGGTKVEIK
notes: Murine monoclonal antibody
B4: antibody 1D19 (antibody, V domains shown)
VH: B3 VH with V37M, I56S, Y60F, K63N, G66D, N84S, A92T, V108T
VL: B3 VL with V108L
notes: Murine monoclonal antibody
B5: antibody 2L12 (antibody, V domains shown)
VH: B3 VH with P4L, E6Q, Q39K, I56D, N84S
VL: B3 VL with A12P, M37L, R96G, V108L
notes: Murine monoclonal antibody
B6: antibody 5C23 (antibody, V domains shown)
VH: B3 VH with Q39K, I56G, K65E, N84S
VL: B3 VL with A9D, A12T, V108L
notes: Murine monoclonal antibody
B7: antibody 3L3 (antibody, V domains shown)
VH: B3 VH with A16T, R31S, I56G, T58P, N61D, N84S
VL: B3 VL with M37V, S69R, R96G, V108L
notes: Murine monoclonal antibody
B8: antibody 4P5 (antibody, V domains shown)
VH: B3 VH with P4L, E6Q, Q39K, I56D, N84S
VL: B3 VL with V3L, S69R, Q93H, R96G, V108L
notes: Murine monoclonal antibody
B9: antibody 5H23 (antibody, V domains shown)
VH: B3 VH with P4L, E6Q, R31S, I56G, S77R, N84S, V108A
VL: B3 VL with S35V, Y40N, N57Y, T89I, E97D, P99T, Y100F, T101P, V108L
notes: Murine monoclonal antibody from hybridoma; also called 5H23-Alexa647 (labelled form)

Where a chain is given by its changes, count along the chain named.

Among the data in patent publication US20210030857A1 (NGM BIOPHARMACEUTICALS, published 2021) are Kd values, retold here.

The target of one test is T1, human beta klotho protein (soluble, …). Put plainly: Biacore SPR, antibody captured on anti-mouse Fc, KLB as analyte (1.56-25 nM), 25 C. As to the method: (§1) Binding affinity measurements were also made in additional Biacore based assays. For example, equilibrium dissociation constant (KD) measurements were carried out with purified antibodies to evaluate their binding to human beta klotho and cyno beta klotho. As mentioned above, anti-mouse Fc antibody (Sigma-Aldrich, St. Louis, Mo.) was immobilized on all four flow cells of a CM5 chip using amine coupling reagents (GE Healthcare LifeSciences, Piscataway, N.J.). Purified antibodies were captured (˜100 RUs) on flow cells 2, 3 and 4 using flow cell 1 as a reference. This was followed by injection of different concentrations of human or cyno beta klotho (1.56 nM to 25 nM, two-fold dilutions in PBS-P buffer) at a flow rate of 70 μL/min and the binding kinetics were evaluated at 25° C.
(In general: Surface plasmon resonance follows binding to a sensor surface in real time, without labels.)
In turn, B1 had a Kd of 3.3 nM.
Regarding B2, binding was characterised by a dissociation constant (Kd) of 0.89 nM.
On the same count and under the same terms, to B3 belongs 1.7 nM; to B4, 1.25 nM.
B5 returned a Kd of 0.22 nM.
The molecule B6 registered a Kd of 1.2 nM.
B7 registered a Kd of 1.14 nM.
With B8, binding was characterised by a dissociation constant (Kd) of 0.26 nM.

The next test deals with T2, cynomolgus monkey beta klotho protein …. The description is as above. The procedure:
as §1
With B1, the dissociation constant (Kd) turned out to be 3.52 nM.
Same read-out and setting: in the case of B2 it was 3.1 nM; in that of B3, 2.5 nM; in that of B9, 0.72 nM.
Still for that read-out and setting: to B4 belongs 2.9 nM; to B5, 1.42 nM.
The same measure, in the same setting: in the case of B6 it was 2.4 nM.
In the case of B7, the Kd stood at 2.2 nM.
In turn, B8 came in with a Kd of 0.44 nM.

As usually defined, the Kd is a measure of binding affinity in units of concentration.
